Measured values from US10513713B2, “Modified host cells having tolerance to α-olefins” (priority 2014, dated 2019).
Where a chain is given by its changes, count along the chain named. Names and notes keep the numbering of the source. Values after ≈ are worked out from the molar mass of the structure shown.

B1: TolC: outer membrane protein TolC encoded on plasmid pTolCa (protein, UniProt P02930 23-493, looked up)
Outer membrane protein TolC: ENLMQVYQQARLSNPELRKSAADRDAAFEKINEARSPLLPQLGLGADYTYSNGYRDANGINSNATSASLQLTQSIFDMSKWRALTLQEKAAGIQDVTYQTDQQTLILNTATAYFNVLNAIDVLSYTQAQKEAIYRQLDQTTQRFNVGLVAITDVQNARAQYDTVLANEVTARNNLDNAVEQLRQITGNYYPELAALNVENFKTDKPQPVNALLKEAEKRNLSLLQARLSQDLAREQIRQAQDGHLPTLDLTASTGISDTSYSGSKTRGAAGTQYDDSNMGQNKVGLSFSLPIYQGGMVNSQVKQAQYNFVGASEQLESAHRSVVQTVRSSFNNINASISSINAYKQAVVSAQSSLDAMEAGYSVGTRTIVDVLDATTTLYNAKQELANARYNYLINQLNIKSALGTLNEQDLLALNNALSKPVSTNPENVAPQTPEQNAIADGYAPDSPAPVVQQTSARTTTSNGHNPFRN
B2: A279T: E. coli AcrB (SEQ ID NO:1) variant with amino acid mutation A279T (protein)
chain: MPNFFIDRPIFAWVIAIIIMLAGGLAILKLPVAQYPTIAPPAVTISASYPGADAKTVQDTVTQVIEQNMNGIDNLMYMSSNSDSTGTVQITLTFESGTDADIAQVQVQNKLQLAMPLLPQEVQQQGVSVEKSSSSFLMVVGVINTDGTMTQEDISDYVAANMKDAISRTSGVGDVQLFGSQYAMRIWMNPNELNKFQLTPVDVITAIKAQNAQVAAGQLGGTPPVKGQQLNASIIAQTRLTSTEEFGKILLKVNQDGSRVLLRDVAKIELGGENYDIITEFNGQPASGLGIKLATGANALDTAAAIRAELAKMEPFFPSGLKIVYPYDTTPFVKISIHEVVKTLVEAIILVFLVMYLFLQNFRATLIPTIAVPVVLLGTFAVLAAFGFSINTLTMFGMVLAIGLLVDDAIVVVENVERVMAEEGLPPKEATRKSMGQIQGALVGIAMVLSAVFVPMAFFGGSTGAIYRQFSITIVSAMALSVLVALILTPALCATMLKPIAKGDHGEGKKGFFGWFNRMFEKSTHHYTDSVGGILRSTGRYLVLYLIIVVGMAYLFVRLPSSFLPDEDQGVFMTMVQLPAGATQERTQKVLNEVTHYYLTKEKNNVESVFAVNGFGFAGRGQNTGIAFVSLKDWADRPGEENKVEAITMRATRAFSQIKDAMVFAFNLPAIVELGTATGFDFELIDQAGLGHEKLTQARNQLLAEAAKHPDMLTSVRPNGLEDTPQFKIDIDQEKAQALGVSINDINTTLGAAWGGSYVNDFIDRGRVKKVYVMSEAKYRMLPDDIGDWYVRAADGQMVPFSAFSSSRWEYGSPRLERYNGLPSMEILGQAAPGKSTGEAMELMEQLASKLPTGVGYDWTGMSYQERLSGNQAPSLYAISLIVVFLCLAALYESWSIPFSVMLVVPLGVIGALLAATFRGLTNDVYFQVGLLTTIGLSAKNAILIVEFAKDLMDKEGKGLIEATLDAVRMRLRPILMTSLAFILGVMPLVISTGAGSGAQNAVGTGVMGGMVTATVLAIFFVPVFFVVVRRRFSRKNEDIEHSHTVDHH
modifications: E. coli
B3: F617L: E. coli AcrB (SEQ ID NO:1) variant with amino acid mutation F617L (protein)
chain: B2 chain with T279A, F617L
modifications: E. coli
B4: L822P: E. coli AcrB (SEQ ID NO:1) variant with amino acid mutation L822P (protein)
chain: B2 chain with T279A, L822P
modifications: E. coli
B5: F927S: E. coli AcrB (SEQ ID NO:1) variant with amino acid mutation F927S (protein)
chain: B2 chain with T279A, F927S
modifications: E. coli
B6: F1033Y: E. coli AcrB (SEQ ID NO:1) variant with amino acid mutation F1033Y (protein)
chain: B2 chain with T279A, F1033Y
modifications: E. coli

How the values were obtained:
Format in all cases: cell-based
E. coli K12 wild type = test: Survival test in 1-hexene saturated atmosphere on over-production of AcrA, AcrB and TolC; details: FIG. 3
Method: Six different dilutions of cultures (10 cells to 10^7 cells, left to right on the picture) were spotted in triplicate on an agar plate.
For agar plate based assays, cells were first streaked overnight and few colonies were used to inoculate a preculture of 6 mL of LB-Cm with glucose (2 g/L) and arabinose (5 mM). At OD60=1 at 37° C., the cultures were used to prepare a dilution series. Dilution 0 (D0) corresponds to the OD600, =1, and contains ˜10^9 cells/mL. Dilution 1 (D1) is a 10-fold dilution of D0, dilution 2 (D2) a 10-fold dilution of D1 up to dilution 5 (D5), which contains ˜10^4 cells/mL. 10 μL of each dilution was spotted in triplicate on LB-agar plates (single well plates, Thermo Scientific, Waltham, Mass.) containing 30 mL of LB-agar, Cm (30 mg/L), glucose (2 g/L) and arabinose (5 mM). […] The agar plates were then inverted over the lid, cells facing the olefin compound, sealed with parafilm, placed in the plastic bag (the original packaging for the petri dishes) and incubated for 2 days at room temperature. For 1-octene, a second condition, via overlaying 2 mL of compound on the top of the agar submerging the cells, was used. TolC overexpression impact was examined using the same method, but in this case, the LB media and the LB-agar were also supplemented with ampicillin (100 mg/L) and IPTG (100 μM).

E. coli K12 = test: microbe, parasite or virus in culture; details: Escherichia coli, K12, 2 h, read-out: toxic dose (concentration of compound that decreased growth by half)
Method: A: The olefin compounds were added to different concentrations as indicated to an E. coli K12 culture at an OD600=0.2. OD was monitored after 2 hour at 37° C. The bars represent standard deviation between duplicates B: A survival test in presence of 1-octene was performed. Six different dilutions of a culture (10 cells to 10^7 cells, left to right) of E. coli K12 were spotted in triplicate on an agar plate. […] Plates were incubated at room temperature for 2 days and then opened to allow evaporation of the olefin.
In this example, toxicity of olefin compounds was evaluated. A toxic dose was defined as the concentration of compound that decreased growth by half.

E. coli K12 ΔacrAB = test: Survival assay on agar plate in olefin saturated atmosphere, strains producing AcrAB or AcrB variants; details: 1-hexene saturated atmosphere; for tolerance to 1-hexene relative to wild type AcrB sequence: single mutation AcrB variants, FIG. 4A
Method: FIG. 2: impact of AcrAB production on growth, in presence of styrene 1-hexene, 1-octene and 1-nonene on cell growth. A: Different concentrations of styrene were added to an OD600=0.2 culture of E. coli K12 ΔacrAB containing the pABc (white) or the control plasmid p0c (black). OD density was monitored after 2 hours of growth at 37° C. The bars represent standard deviation between duplicates. B: A survival test in presence of 1-hexene, 1-octene, or 1-nonene saturated atmosphere was performed. Six different dilutions of cultures (10 cells to 10^7 cells, left to right on the figure) were spotted in triplicate on an agar plates. Plates were then exposed to the aforementioned chemicals.
FIG. 4: Impact of beneficial mutations on AcrB on tolerance to 1-hexene, A: Survival test of E. coli strain producing either the AcrB wild type or variants in a 1-hexene saturated atmosphere was performed. Two dilutions of cultures (Dilution 1: 10^5 cells and Dilution 2: 10^4 cells) were spotted in triplicate on an agar plate. B: Localization of the 6 beneficial mutations represented on the structure of a single monomer of AcrB or C: on the structure of the AcrB trimer.
FIG. 6: Impact of beneficial mutations on AcrB on tolerance to 1-hexene. A: Survival test of E. coli strain producing either the AcrB Wild type or variants with 1, 2 or several beneficial mutations, in an 1-hexene saturated atmosphere was performed. Two dilutions of cultures (Dilution 2: 10^4 cells and Dilution 3: 10^3 cells) were spotted in triplicate on an agar plate. B: Soluble fraction of total proteins from a culture of strains producing either the wild type, either the variant F617L, either the variant 6 (A279T, Q584R, F617L) were analyzed by western blot using anti-His antibody.
For agar plate based assays, cells were first streaked overnight and few colonies were used to inoculate a preculture of 6 mL of LB-Cm with glucose (2 g/L) and arabinose (5 mM). At OD60=1 at 37° C., the cultures were used to prepare a dilution series. Dilution 0 (D0) corresponds to the OD600, =1, and contains ˜10^9 cells/mL. Dilution 1 (D1) is a 10-fold dilution of D0, dilution 2 (D2) a 10-fold dilution of D1 up to dilution 5 (D5), which contains ˜10^4 cells/mL. 10 μL of each dilution was spotted in triplicate on LB-agar plates (single well plates, Thermo Scientific, Waltham, Mass.) containing 30 mL of LB-agar, Cm (30 mg/L), glucose (2 g/L) and arabinose (5 mM). Small containers (microfuge tube lids) were placed on the open lid of the agar plate and filled with 400 to 600 μL of 1-hexene or 1-octene or with 75 μL of 1-nonene. The agar plates were then inverted over the lid, cells facing the olefin compound, sealed with parafilm, placed in the plastic bag (the original packaging for the petri dishes) and incubated for 2 days at room temperature. For 1-octene, a second condition, via overlaying 2 mL of compound on the top of the agar submerging the cells, was used. TolC overexpression impact was examined using the same method, but in this case, the LB media and the LB-agar were also supplemented with ampicillin (100 mg/L) and IPTG (100 μM). […]

Molecule | efficiency among the beneficial mutations (E. coli K12 ΔacrAB) | tolerance to 1-hexene relative to wild type AcrB sequence (E. coli K12 ΔacrAB) | other results
acrA and acrB and TolC: E. coli tripartite RND efflux pump AcrAB-TolC, over-expressed from pABc and pTolCa | – | – | tolerance to 1-hexene on over-expression in the wild type strain (E. coli K12 wild type): increased tolerance
C=CCCCC [1-hexene] | – | – | IC50 (E. coli K12): 65 µg/mL (≈ 772 µM)
C=Cc1ccccc1 [styrene] | – | – | IC50 (E. coli K12): 110 µg/mL (≈ 1060 µM)
B1 | – | – | tolerance to 1-hexene on over-expression in the wild type strain (E. coli K12 wild type): does not improve the survival
B2 | more efficient | improvement in tolerance | –
B3 | more efficient | improvement in tolerance | –
B4 | more efficient | improvement in tolerance | –
B5 | – | improvement in tolerance | –
B6 | – | improvement in tolerance | –
